From US20250352667A1
Each block holds one binder with its values, some of them ahead of it.

Key:
[1] = molecular target: KEAP1 (wild-type full-length), His-tagged (human) (UniProt Q14145); assay: AlphaScreen; FLAG-NRF2 wt isoform 1 38.4 nM, His-KEAP1 150 nM; Repeat 1; positive control for Q75R
[2] = molecular target: KEAP1 (wild-type full-length), His-tagged (human) (UniProt Q14145); assay: AlphaScreen; 153.6 nM FLAG-NRF2, 150 nM His-KEAP1; Rep 1; control for I28V
[3] = molecular target: KEAP1 (wild-type full-length), His-tagged (human) (UniProt Q14145); assay: AlphaScreen; 9.6 nM FLAG-NRF2, 150 nM His-KEAP1; Repeat 2 (same value as in Table 26)
[4] = molecular target: KEAP1 (wild-type full-length), His-tagged (human) (UniProt Q14145); assay: AlphaScreen; 76.8 nM FLAG-NRF2, 150 nM His-KEAP1; Rep 1; control for I28V
[5] = molecular target: KEAP1 (wild-type full-length), His-tagged (human) (UniProt Q14145); assay: AlphaScreen; FLAG-NRF2 wt isoform 1 4.8 nM, His-KEAP1 150 nM; Rep 1; positive control for Q75R
[6] = molecular target: KEAP1 (wild-type full-length), His-tagged (human) (UniProt Q14145); assay: AlphaScreen; 9.6 nM FLAG-NRF2, 150 nM His-KEAP1; Rep 1; control for I86V
[7] = molecular target: KEAP1 (wild-type full-length), His-tagged (human) (UniProt Q14145); assay: AlphaScreen; 614.4 nM FLAG-NRF2, 150 nM His-KEAP1; Rep 2; control for I28V
[8] = molecular target: KEAP1 (wild-type full-length), His-tagged (human) (UniProt Q14145); assay: AlphaScreen; NRF2 wt isoform 1 9.6 nM, KEAP1 150 nM; set as the 100 % reference for I86V
[9] = molecular target: KEAP1 (wild-type full-length), His-tagged (human) (UniProt Q14145); assay: AlphaScreen; 614.4 nM FLAG-NRF2, 150 nM His-KEAP1; Rep 3; control for I86V
[10] = molecular target: KEAP1 (wild-type full-length), His-tagged (human) (UniProt Q14145); assay: AlphaScreen; FLAG-NRF2 wt isoform 1 19.2 nM, His-KEAP1 150 nM; Repeat 2; positive control for Q75R
[11] = molecular target: KEAP1 (wild-type full-length), His-tagged (human) (UniProt Q14145); assay: AlphaScreen; FLAG-NRF2 wt isoform 1 9.6 nM, His-KEAP1 150 nM; Rep 3; positive control for I86V
[12] = molecular target: KEAP1 (wild-type full-length), His-tagged (human) (UniProt Q14145); assay: AlphaScreen; 38.4 nM FLAG-NRF2, 150 nM His-KEAP1; Rep 2; control for I28V
[13] = molecular target: KEAP1 (wild-type full-length), His-tagged (human) (UniProt Q14145); assay: AlphaScreen; 4.8 nM FLAG-NRF2, 150 nM His-KEAP1; Rep 2; control for I86V
[14] = molecular target: KEAP1 (wild-type full-length), His-tagged (human) (UniProt Q14145); assay: AlphaScreen, all variants on one plate; upper condition (38.4 nM NRF2), KEAP1 150 nM; the reference itself
[15] = molecular target: KEAP1 (wild-type full-length), His-tagged (human) (UniProt Q14145); assay: AlphaScreen; 9.6 nM FLAG-NRF2, 150 nM His-KEAP1; signal against NRF2 only; control for I28V
[16] = molecular target: KEAP1 (wild-type full-length), His-tagged (human) (UniProt Q14145); assay: AlphaScreen; 19.2 nM FLAG-NRF2, 150 nM His-KEAP1; Rep 1; control for I86V
[17] = molecular target: KEAP1 (wild-type full-length), His-tagged (human) (UniProt Q14145); assay: AlphaScreen; NRF2 Q75R 38.4 nM, KEAP1 150 nM; signal against NRF2-only control
[18] = molecular target: KEAP1 (wild-type full-length), His-tagged (human) (UniProt Q14145); assay: AlphaScreen; NRF2 Q75R 19.2 nM, KEAP1 150 nM; relative to wild-type NRF2 isoform 1 (100 %)
[19] = molecular target: KEAP1 (wild-type full-length), His-tagged (human) (UniProt Q14145); assay: AlphaScreen; FLAG-NRF2 Q75R 19.2 nM, His-KEAP1 150 nM; Repeat 2
[20] = molecular target: KEAP1 (wild-type full-length), His-tagged (human) (UniProt Q14145); assay: AlphaScreen; NRF2 Q75R 153.6 nM, KEAP1 150 nM; signal against NRF2-only control
[21] = molecular target: KEAP1 (wild-type full-length), His-tagged (human) (UniProt Q14145); assay: AlphaScreen; FLAG-NRF2 Q75R 38.4 nM, His-KEAP1 150 nM; Repeat 1
[22] = molecular target: KEAP1 (wild-type full-length), His-tagged (human) (UniProt Q14145); assay: AlphaScreen; FLAG-NRF2 Q75R 76.8 nM, His-KEAP1 150 nM; Rep 1
[23] = molecular target: KEAP1 (wild-type full-length), His-tagged (human) (UniProt Q14145); assay: AlphaScreen; mean over 9.6, 19.2 and 38.4 nM NRF2; 150 nM His-KEAP1; against wild-type NRF2 isoform 1
[24] = molecular target: KEAP1 (wild-type full-length), His-tagged (human) (UniProt Q14145); assay: AlphaScreen; 1228.8 nM FLAG-NRF2, 150 nM His-KEAP1; signal against NRF2 only
[25] = molecular target: KEAP1 (wild-type full-length), His-tagged (human) (UniProt Q14145); assay: AlphaScreen; FLAG-NRF2 I86V 9.6 nM, His-KEAP1 150 nM; Rep 3
[26] = molecular target: KEAP1 (wild-type full-length), His-tagged (human) (UniProt Q14145); assay: AlphaScreen; mean over 9.6, 19.2 and 38.4 nM NRF2 I86V, KEAP1 150 nM; relative to wild-type NRF2 isoform 1
[27] = molecular target: KEAP1 (wild-type full-length), His-tagged (human) (UniProt Q14145); assay: AlphaScreen; FLAG-NRF2 I86V 4.8 nM, His-KEAP1 150 nM; Rep 3

Sequence of KEAP1 (wild-type full-length), His-tagged (human) (Q14145 2-624 limits assumed): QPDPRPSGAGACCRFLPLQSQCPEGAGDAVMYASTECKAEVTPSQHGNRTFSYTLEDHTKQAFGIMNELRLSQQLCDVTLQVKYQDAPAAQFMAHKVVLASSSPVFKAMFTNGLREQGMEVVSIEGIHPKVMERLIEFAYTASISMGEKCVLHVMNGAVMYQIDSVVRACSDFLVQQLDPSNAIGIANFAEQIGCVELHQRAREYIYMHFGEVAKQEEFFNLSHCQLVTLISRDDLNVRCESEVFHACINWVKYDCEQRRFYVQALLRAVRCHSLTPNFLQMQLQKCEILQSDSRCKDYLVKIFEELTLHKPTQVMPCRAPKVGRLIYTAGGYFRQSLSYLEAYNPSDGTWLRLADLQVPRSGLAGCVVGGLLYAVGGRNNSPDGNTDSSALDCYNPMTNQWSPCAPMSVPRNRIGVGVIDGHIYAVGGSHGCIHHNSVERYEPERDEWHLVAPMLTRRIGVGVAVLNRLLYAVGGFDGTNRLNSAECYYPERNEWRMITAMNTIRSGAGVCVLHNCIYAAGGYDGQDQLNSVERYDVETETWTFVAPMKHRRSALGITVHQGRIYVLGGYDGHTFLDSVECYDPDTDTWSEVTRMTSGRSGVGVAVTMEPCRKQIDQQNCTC

B3: NRF2 isoform 1 (I28V full-length), FLAG-tagged (protein)
chain: MMDLELPPPGLPSQQDMDLIDILWRQDVDLGVSREVFDFSQRRKEYELEKQKKLEKERQEQLQKEQEKAFFAQLQLDEETGEFLPIQPAQHIQSETSGSANYSQVAHIPKSDALYFDDCMQLLAQTFPFVDDNEVSSATFQSLVPDIPGHIESPVFIATNQAQSPETSVAQVAPVDLDGMQQDIEQVWEELLSIPELQCLNIENDKLVETTMVPSPEAKLTEVDNYHFYSSIPSMEKEVGNCSPHFLNAFEDSFSSILSTEDPNQLTVNSLNSDATVNTDFGDEFYSAFIAEPSISNSMPSPATLSHSLSELLNGPIDVSDLSLCKAFNQNHPESTAEFNDSDSGISLNTSPSVASPEHSVESSSYGDTLLGLSDSEVEELDSAPGSVKQNGPKTPVHSSGDMVQPLSPSQGQSTHVHDAQCENTPEKELPVSPGHRKTPFTKDKHSSRLEAHLTRDELRAKALHIPFPVEKIINLPVVDFNEMMSKEQFNEAQLALIRDIRRRGKNKVAAQNCRKRKLENIVELEQDLDHLKDEKEKLLKEKGENDKSLHLLKKQLSTLYLEVFSMLRDEDGKPYSPSEYSLQQTRDGNVFLVPKSKKPDVKKN
- Avg. Reduction in Binding [23]: 30.2%
- S/N [24]: 0.9

B4: NRF2 isoform 1 (I86V full-length), FLAG-tagged (protein)
chain: MMDLELPPPGLPSQQDMDLIDILWRQDIDLGVSREVFDFSQRRKEYELEKQKKLEKERQEQLQKEQEKAFFAQLQLDEETGEFLPVQPAQHIQSETSGSANYSQVAHIPKSDALYFDDCMQLLAQTFPFVDDNEVSSATFQSLVPDIPGHIESPVFIATNQAQSPETSVAQVAPVDLDGMQQDIEQVWEELLSIPELQCLNIENDKLVETTMVPSPEAKLTEVDNYHFYSSIPSMEKEVGNCSPHFLNAFEDSFSSILSTEDPNQLTVNSLNSDATVNTDFGDEFYSAFIAEPSISNSMPSPATLSHSLSELLNGPIDVSDLSLCKAFNQNHPESTAEFNDSDSGISLNTSPSVASPEHSVESSSYGDTLLGLSDSEVEELDSAPGSVKQNGPKTPVHSSGDMVQPLSPSQGQSTHVHDAQCENTPEKELPVSPGHRKTPFTKDKHSSRLEAHLTRDELRAKALHIPFPVEKIINLPVVDFNEMMSKEQFNEAQLALIRDIRRRGKNKVAAQNCRKRKLENIVELEQDLDHLKDEKEKLLKEKGENDKSLHLLKKQLSTLYLEVFSMLRDEDGKPYSPSEYSLQQTRDGNVFLVPKSKKPDVKKN
- A-counts (NRF2 plus KEAP1) [25]: 2860 A-counts
- Average Binding [26]: 96.8%
- Avg. Reduction in Binding [26]: 3.2%
- A-counts (NRF2 plus KEAP1) [27]: 2180 A-counts

The remaining lines, values ahead:

- A-counts (NRF2 plus KEAP1) [1]: 1480 A-counts
- A-counts [2]: 1930 A-counts
- A-counts [3]: 1640 A-counts
- A-counts [4]: 2000 A-counts
- A-counts (NRF2 plus KEAP1) [5]: 725 A-counts
- A-counts [6]: 2640 A-counts
- A-counts [7]: 1810 A-counts
- Binding Percentage [8]: 100%
- A-counts [9]: 2720 A-counts
- A-counts (NRF2 plus KEAP1) [10]: 1480 A-counts
- A-counts (NRF2 plus KEAP1) [11]: 2410 A-counts
- A-counts [12]: 1900 A-counts
- A-counts [13]: 1620 A-counts
- % Disruption in Binding [14]: 0%
- S/N [15]: 4.1
- A-counts [16]: 3300 A-counts
B1: NRF2 isoform 1 (wild-type full-length), FLAG-tagged (protein)
chain: MMDLELPPPGLPSQQDMDLIDILWRQDIDLGVSREVFDFSQRRKEYELEKQKKLEKERQEQLQKEQEKAFFAQLQLDEETGEFLPIQPAQHIQSETSGSANYSQVAHIPKSDALYFDDCMQLLAQTFPFVDDNEVSSATFQSLVPDIPGHIESPVFIATNQAQSPETSVAQVAPVDLDGMQQDIEQVWEELLSIPELQCLNIENDKLVETTMVPSPEAKLTEVDNYHFYSSIPSMEKEVGNCSPHFLNAFEDSFSSILSTEDPNQLTVNSLNSDATVNTDFGDEFYSAFIAEPSISNSMPSPATLSHSLSELLNGPIDVSDLSLCKAFNQNHPESTAEFNDSDSGISLNTSPSVASPEHSVESSSYGDTLLGLSDSEVEELDSAPGSVKQNGPKTPVHSSGDMVQPLSPSQGQSTHVHDAQCENTPEKELPVSPGHRKTPFTKDKHSSRLEAHLTRDELRAKALHIPFPVEKIINLPVVDFNEMMSKEQFNEAQLALIRDIRRRGKNKVAAQNCRKRKLENIVELEQDLDHLKDEKEKLLKEKGENDKSLHLLKKQLSTLYLEVFSMLRDEDGKPYSPSEYSLQQTRDGNVFLVPKSKKPDVKKN

- S/N [17]: 2.4
- Binding Percentage [18]: 63.7%
- A-counts (NRF2 plus KEAP1) [19]: 1280 A-counts
- S/N [20]: 1.5
- A-counts (NRF2 plus KEAP1) [21]: 1200 A-counts
- A-counts (NRF2 plus KEAP1) [22]: 1110 A-counts
B2: NRF2 isoform 1 (Q75R full-length), FLAG-tagged (protein)
chain: MMDLELPPPGLPSQQDMDLIDILWRQDIDLGVSREVFDFSQRRKEYELEKQKKLEKERQEQLQKEQEKAFFAQLRLDEETGEFLPIQPAQHIQSETSGSANYSQVAHIPKSDALYFDDCMQLLAQTFPFVDDNEVSSATFQSLVPDIPGHIESPVFIATNQAQSPETSVAQVAPVDLDGMQQDIEQVWEELLSIPELQCLNIENDKLVETTMVPSPEAKLTEVDNYHFYSSIPSMEKEVGNCSPHFLNAFEDSFSSILSTEDPNQLTVNSLNSDATVNTDFGDEFYSAFIAEPSISNSMPSPATLSHSLSELLNGPIDVSDLSLCKAFNQNHPESTAEFNDSDSGISLNTSPSVASPEHSVESSSYGDTLLGLSDSEVEELDSAPGSVKQNGPKTPVHSSGDMVQPLSPSQGQSTHVHDAQCENTPEKELPVSPGHRKTPFTKDKHSSRLEAHLTRDELRAKALHIPFPVEKIINLPVVDFNEMMSKEQFNEAQLALIRDIRRRGKNKVAAQNCRKRKLENIVELEQDLDHLKDEKEKLLKEKGENDKSLHLLKKQLSTLYLEVFSMLRDEDGKPYSPSEYSLQQTRDGNVFLVPKSKKPDVKKN
